Results published in patent US20180258153A1 (Novo Nordisk, published 2018).
Starred links: 1 amine or outer side, 2 acyl side, 3 side chain; linkers in the order of their positions; H or OH if unused. Non-standard residues stand in square brackets, D forms with d. Groups on a side chain read outwards from the residue. No end group written: not given here. *: point of attachment. C20 diacid = O=C(O)CCCCCCCCCCCCCCCCCCC(=O)*; γGlu = O=C(O)[C@H](CCC(=O)[*:2])N[*:1]; Desaminohistidyl = O=C(CCc1c[nH]cn1)*; Trx = NC[C@H]1CC[C@H](C(=O)O)CC1; AEEA = NCCOCCOCC(=O)O; Aib = CC(C)(N)C(=O)O

Legend:
human GLP-1 receptor [1] = biological target: T1, human GLP-1 receptor (human, UniProt P43220 24-463); assay: SPA competition, displacement of 125I-GLP-1(7-36)NH2 from BHK membranes with human GLP-1 receptor; high HSA (2.0%)
T1 construct: whole, on cells
Protocol: (§1) For the receptor binding assay in the presence of low HSA (0.005%) 50 μl of the assay buffer was added to each well of an assay plate. […] For the receptor binding assay in the presence of high HSA (2%) 50 μl of the 8% albumin stock was added to each well of an assay plate. […] Cell membrane aliquots were thawed and diluted to their working concentration. Fifty μl were added to each well in the assay plate. […] WGA SPA beads were suspended in assay buffer at 20 mg/ml. The suspension was diluted to 10 mg/ml in assay buffer just prior to addition to the assay plate. Fifty μl were added to each well in the assay plate. […] A 25 μl aliquot was reserved for measuring total counts/well. […] The assay plate was incubated for 2 h at 30° C. […] The assay plate was centrifuged for 10 min. […] The assay plate was read in a Packard TopCount NXT instrument.
(§2) The data from the TopCount instrument were transferred to GraphPad Prism software. Individual replicates were analysed using non-linear regression.

human GLP-1 receptor [2] = biological target: T1, human GLP-1 receptor; assay: SPA competition, displacement of 125I-GLP-1(7-36)NH2 from BHK membranes with human GLP-1 receptor; low HSA (max. 0.001%)
Protocol: as §1, §2

human GLP-1 receptor [3] = biological target: T1, human GLP-1 receptor; assay: cell-based or functional assay

B1: GLP-1 derivative of Example 2 (peptide)
peptide: HXEGTFTSDVSSYLEEQAAREFIAWLVRGRK
modifications: not fully specified; Aib at position 8 (GLP-1 numbering); epsilon-amino of Lys37 acylated with branched side chain: Pre-linker 2xAdo; Branched linker eps-Lys(Bis); two Post-linkers Trx-gGlu-2xAdo, each carrying a C20 diacid Protractor
notes: also called Chem. 22; N{Epsilon-37}-acylated [Aib8,Glu22,Arg26,Arg34,Lys37]-GLP-1-(7-37)-peptide
Which IC50 (human GLP-1 receptor [1]) does the source give for B1 here?
Its IC50 is 49 nM.

What about the IC50 (human GLP-1 receptor [2]) of the same binder?
Its IC50 is 0.56 nM.

What about the “EC50 (pM), in vitro potency, CRE luciferase reporter in BHK cells expressing the human GLP-1 receptor” value (“EC50 (pM), in vitro potency” below) (human GLP-1 receptor [3]) of the same binder?
Its value is 70 pM.

B2: GLP-1 derivative of Example 3 (peptide)
peptide: HXEGTFTSDVSSYLEEQAAREFIAWLVRGRK
modifications: not fully specified; Aib at position 8 (GLP-1 numbering); epsilon-amino of Lys37 acylated with branched side chain: Pre-linker dPEG6; Branched linker eps-Lys(Bis); two Post-linkers Trx-gGlu, each carrying a C20 diacid Protractor
notes: also called Chem. 23; N{Epsilon-37}-acylated [Aib8,Glu22,Arg26,Arg34,Lys37]-GLP-1-(7-37)-peptide
With B2 as the binder, how does the IC50 (human GLP-1 receptor [1]) read?
Its IC50 is 180 nM.

What about the “EC50 (pM), in vitro potency” value (human GLP-1 receptor [3]) of the same binder?
Its value is 160 pM.

B3: GLP-1 derivative of Example 15 (peptide)
peptide: HXEGTFTSDVSSYLEEQAAREFIAWLVRGRK
modifications: not fully specified; Aib at position 8 (GLP-1 numbering); epsilon-amino of Lys37 acylated with branched side chain: Pre-linker 4xAdo; Branched linker eps-Lys(Bis); two Post-linkers Trx-gGlu-2xAdo, each carrying a C20 diacid Protractor
notes: also called Chem. 35; N{Epsilon-37}-acylated [Aib8,Glu22,Arg26,Arg34,Lys37]-GLP-1-(7-37)-peptide
For B3, which IC50 (human GLP-1 receptor [1]) is on record?
Its IC50 is 48 nM.

What about the IC50 (human GLP-1 receptor [2]) of the same binder?
The IC50 was 0.87 nM.

And the “EC50 (pM), in vitro potency” value (human GLP-1 receptor [3])?
The value was 48 pM.

B4: GLP-1 derivative of Example 10 (peptide)
peptide: HXEGTFTSDVSSYLEEQAAREFIAWLVRGRK
modifications: not fully specified; Aib at position 8 (GLP-1 numbering); epsilon-amino of Lys37 acylated with branched side chain: Pre-linker 4xeps-Lys; Branched linker eps-Lys(Bis); two Post-linkers Trx-gGlu, each carrying a C20 diacid Protractor
notes: also called Chem. 30; N{Epsilon-37}-acylated [Aib8,Glu22,Arg26,Arg34,Lys37]-GLP-1-(7-37)-peptide
What does the source list for B4?
IC50 (human GLP-1 receptor [2]): 19 nM; EC50 (pM), in vitro potency, CRE luciferase reporter in BHK cells expressing the human GLP-1 receptor (human GLP-1 receptor [3]): 150 pM

B5: GLP-1 derivative of Example 5 (peptide)
peptide: HXEGTFTSDVSSYLEEQAAREFIAWLVRGRK
modifications: not fully specified; Aib at position 8 (GLP-1 numbering); epsilon-amino of Lys37 acylated with branched side chain: Pre-linker dPEG20; Branched linker eps-Lys(Bis); two Post-linkers Trx-gGlu, each carrying a C20 diacid Protractor
notes: also called Chem. 25; N{Epsilon-37}-acylated [Aib8,Glu22,Arg26,Arg34,Lys37]-GLP-1-(7-37)-peptide
How did the IC50 (human GLP-1 receptor [1]) turn out when B5 was run?
The IC50 was 9.7 nM.

And the IC50 (human GLP-1 receptor [2])?
The IC50 was 0.91 nM.

What about the “EC50 (pM), in vitro potency” value (human GLP-1 receptor [3]) of the same binder?
The value was 53 pM.

B6: GLP-1 derivative of Example 8 (peptide)
peptide: HXEGTFTSDVSSYLEEQAAREFIAWLVRGRK
modifications: Aib at position 8 (GLP-1 numbering); epsilon-amino of Lys37 acylated with branched side chain: Pre-linker 4xAdo; Branched linker eps-Lys(Bis); two Post-linkers Trx-gGlu, each carrying a C20 diacid Protractor
notes: also called Chem. 28; N{Epsilon-37}-acylated [Aib8,Glu22,Arg26,Arg34,Lys37]-GLP-1-(7-37)-peptide
B6 was tested. Which IC50 (human GLP-1 receptor [1]) did it give?
Its IC50 is 45 nM.

And the IC50 (human GLP-1 receptor [2])?
Its IC50 is 1.1 nM.

And the “EC50 (pM), in vitro potency” value (human GLP-1 receptor [3])?
The value was 72 pM.

B7: GLP-1 derivative of Example 17 (peptide)
peptide: H[Aib]EGTFTSDVSSYLEEQAAREFIAWLVRKRG
modifications: not fully specified (residue 29)
notes: also called Chem. 37; N{Epsilon-35}-acylated [Aib8,Glu22,Arg26,Arg34,Lys35]-GLP-1-(7-37)-peptide
For B7, which IC50 (human GLP-1 receptor [1]) is on record?
The IC50 was 77 nM.

What about the IC50 (human GLP-1 receptor [2]) of the same binder?
The IC50 was 0.64 nM.

What about the “EC50 (pM), in vitro potency” value (human GLP-1 receptor [3]) of the same binder?
The value was 20 pM.

B8: GLP-1 derivative of Example 18 (peptide)
peptide: H[Aib]EGTFTSDVSSYLEEQAAREFIAWLVRGKG
modifications: not fully specified (residue 30)
notes: also called Chem. 38; N{Epsilon-36}-acylated [Aib8,Glu22,Arg26,Arg34,Lys36]-GLP-1-(7-37)-peptide
With B8 as the binder, how does the IC50 (human GLP-1 receptor [1]) read?
The IC50 was 24 nM.

What about the IC50 (human GLP-1 receptor [2]) of the same binder?
The IC50 was 0.68 nM.

And the “EC50 (pM), in vitro potency” value (human GLP-1 receptor [3])?
Its value is 37 pM.

B9: GLP-1 derivative of Example 7 (peptide)
peptide: [Desaminohistidyl][Aib]EGTFTSDVSSYLEEQAAREFIAWLVRGRGGK([AEEA-AEEA-Lys-AEEA-AEEA-γGlu-Trx-C20 diacid),(Ado-AEEA-γGlu-Trx-C20 diacid])
modifications: also: branched side chain on Lys39: two identical arms on eps-Lys(Bis)
notes: also called Chem. 27; [Imp7,Aib8,Glu22,Arg26,Arg34]-GLP-1-(7-37)-peptidyl-Gly-N{Epsilon}-acylated Lys
Which IC50 (human GLP-1 receptor [1]) does the source give for B9 here?
Its IC50 is 54 nM.

And the IC50 (human GLP-1 receptor [2])?
The IC50 was 0.57 nM.

What about the “EC50 (pM), in vitro potency” value (human GLP-1 receptor [3]) of the same binder?
The value was 79 pM.

B10: GLP-1 derivative of Example 19 (peptide)
peptide: H[Aib]EGTFTSDVSSYLEEQAAREFIAWLVRGRGK
modifications: not fully specified (residue 32)
notes: also called Chem. 39; N{Alpha}([Aib8,Glu22,Arg26,Arg34]-GLP-1-(7-37)-peptidyl)-N{Epsilon}-acylated Lys
Which IC50 (human GLP-1 receptor [1]) does the source give for B10 here?
The IC50 was 34 nM.

What about the IC50 (human GLP-1 receptor [2]) of the same binder?
The IC50 was 0.69 nM.

And the “EC50 (pM), in vitro potency” value (human GLP-1 receptor [3])?
Its value is 71 pM.
